Earlier results, collected in patent publication US20230233498A1, “COMPOSITIONS AND METHODS FOR THE TREATMENT OF COVID-19” (PROTHIONE, LLC, priority 2020, published 2023).

How the values were obtained:
EBOV replicon system = conditions: transient expression
Ebola virus (EBOV) = conditions: cells expressing NZAP-Zeo or full-length ZAP

B1: ZAP: zinc finger antiviral protein (protein, UniProt Q7Z2W4 2-902, looked up)
Zinc finger CCCH-type …: ADPEVCCFITKILCAHGGRMALDALLQEIALSEPQLCEVLQVAGPDRFVVLETGGEAGITRSVVATTRARVCRRKYCQRPCDNLHLCKLNLLGRCNYSQSERNLCKYSHEVLSEENFKVLKNHELSGLNKEELAVLLLQSDPFFMPEICKSYKGEGRQQICNQQPPCSRLHICDHFTRGNCRFPNCLRSHNLMDRKVLAIMREHGLNPDVVQNIQDICNSKHMQKNPPGPRAPSSHRRNMAYRARSKSRDRFFQGSQEFLASASASAERSCTPSPDQISHRASLEDAPVDDLTRKFTYLGSQDRARPPSGSSKATDLGGTSQAGTSQRFLENGSQEDLLHGNPGSTYLASNSTSAPNWKSLTSWTNDQGARRKTVFSPTLPAARSSLGSLQTPEAVTTRKGTGLLSSDYRIINGKSGTQDIQPGPLFNNNADGVATDITSTRSLNYKSTSSGHREISSPRIQDAGPASRDVQATGRIADDADPRVALVNDSLSDVTSTTSSRVDDHDSEEICLDHLCKGCPLNGSCSKVHFHLPYRWQMLIGKTWTDFEHMETIEKGYCNPGIHLCSVGSYTINFRVMSCDSFPIRRLSTPSSVTKPANSVFTTKWIWYWKNESGTWIQYGEEKDKRKNSNVDSSYLESLYQSCPRGVVPFQAGSRNYELSFQGMIQTNIASKTQKDVIRRPTFVPQWYVQQMKRGPDHQPAKTSSVSLTATFRPQEDFCFLSSKKYKLSEIHHLHPEYVRVSEHFKASMKNFKIEKIKKIENSELLDKFTWKKSQMKEEGKLLFYATSRAYVESICSNNFDSFLHETHENKYGKGIYFAKDAIYSHKNCPYDAKNVVMFVAQVLVGKFTEGNITYTSPPPQFDSCVDTRSNPSVFVIFQKDQVYPQYVIEYTEDKACVIS
EBOV replicon system
  decreased activity of an EBOV replicon system: up to 95%
Ebola virus (EBOV)
  EBOV inhibited: up to 4 log units
